# Assay results reported in FireProtDB (doi:10.1073/pnas.88.5.1706).
# B1: DNA-Binding protein, P69542 (parent)
# chain: MIKVEIKPSQAQFTTRSGVSRQGKPYSLNEQLCYVDLGNEYPVLVKITLDEGQPAYAPGLYTVHLSSFKVGQFGSLMIDRLRLVPAK
# Variants of: B1
# Settings: Enterobacteria phage fd; pH 7; 25 °C; GdnHCl; CD; MOPS 50 mM; NaCl 100 mM; reversible: yes; structure 1VQB; whole UniProt chain shown
Variant,ddG of mutation (higher = less stable),denaturant m value,denaturant midpoint (higher = more stable),unfolding free energy
V35A,2.2 kcal/mol,3.9 kcal/mol/M,2.01 M,6.9 kcal/mol
V35A I47L,2.9 kcal/mol,4.5 kcal/mol/M,1.85 M,6.1 kcal/mol
V35A I47M,4.4 kcal/mol,4.2 kcal/mol/M,1.47 M,4.6 kcal/mol
V35A I47V,4.4 kcal/mol,4.5 kcal/mol/M,1.5 M,4.6 kcal/mol
V35C,1.4 kcal/mol,4.1 kcal/mol/M,2.21 M,7.7 kcal/mol
V35C I47C,7.1 kcal/mol,4.9 kcal/mol/M,0.99 M,1.9 kcal/mol
V35F,3.1 kcal/mol,3.8 kcal/mol/M,1.76 M,5.9 kcal/mol
V35F I47L,4.1 kcal/mol,3.9 kcal/mol/M,1.51 M,4.9 kcal/mol
V35I,0.6 kcal/mol,3.6 kcal/mol/M,2.44 M,8.4 kcal/mol
V35I I47F,2 kcal/mol,4.4 kcal/mol/M,2.05 M,7 kcal/mol
V35I I47L,1.1 kcal/mol,4.2 kcal/mol/M,2.27 M,7.9 kcal/mol
V35I I47M,2.8 kcal/mol,4.2 kcal/mol/M,1.87 M,6.3 kcal/mol
V35I I47V,3 kcal/mol,4.1 kcal/mol/M,1.8 M,6 kcal/mol
V35L,2.7 kcal/mol,4.5 kcal/mol/M,1.9 M,6.4 kcal/mol
V35L I47F,3.94 kcal/mol,4.3 kcal/mol/M,1.6 M,5.1 kcal/mol
V35L I47L,3.5 kcal/mol,4.3 kcal/mol/M,1.7 M,5.5 kcal/mol
V35L I47M,5.3 kcal/mol,5 kcal/mol/M,1.37 M,3.7 kcal/mol
V35L I47V,5 kcal/mol,4.2 kcal/mol/M,1.32 M,4 kcal/mol
V35M,1 kcal/mol,3.6 kcal/mol/M,2.33 M,8 kcal/mol
V35M I47F,2.3 kcal/mol,4.7 kcal/mol/M,1.99 M,6.8 kcal/mol
V35M I47L,1.6 kcal/mol,4.1 kcal/mol/M,2.14 M,7.4 kcal/mol
V35M I47M,3.5 kcal/mol,3.8 kcal/mol/M,1.65 M,5.5 kcal/mol
I47A,7 kcal/mol,4.3 kcal/mol/M,0.87 M,2 kcal/mol
I47L,0.6 kcal/mol,3.7 kcal/mol/M,2.43 M,8.4 kcal/mol
I47M,2.1 kcal/mol,3.9 kcal/mol/M,2.02 M,6.9 kcal/mol
I47V,2.5 kcal/mol,3.9 kcal/mol/M,1.91 M,6.5 kcal/mol
